Assay results from publication PMC6080606, “Transbilayer phospholipid movement facilitates the translocation of annexin across membranes” (Journal of Cell Science, 2018).

T1: recombinant annexin A5, P08758
T1 chain: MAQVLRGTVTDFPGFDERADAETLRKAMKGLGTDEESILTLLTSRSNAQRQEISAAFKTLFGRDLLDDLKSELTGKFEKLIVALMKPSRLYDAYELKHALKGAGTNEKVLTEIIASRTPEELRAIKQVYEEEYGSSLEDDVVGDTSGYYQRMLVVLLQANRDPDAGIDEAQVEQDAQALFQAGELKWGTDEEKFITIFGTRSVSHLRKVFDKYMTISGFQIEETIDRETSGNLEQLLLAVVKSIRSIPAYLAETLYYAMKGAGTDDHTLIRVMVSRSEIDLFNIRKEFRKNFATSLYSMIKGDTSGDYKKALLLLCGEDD

T2: recombinant annexin A5 (UniProt P08758 1-320, Alexa Fluor 647 conjugated (the labelled copy held at a constant 20 µg/ml; position not stated); the titrated copy of the dimerisation assay is unlabelled)
T2 construct: annexin A5 (annexin V), recombinant; The products were matched from the reagents list: the Alexa Fluor 647 conjugate is likely Biolegend 640912 and the unlabelled protein likely Novus NBP1-30265; Labelled and unlabelled copies are written as one molecule for the self-association; also called annexin V; annexin A5 conjugated to Alexa Fluor 647; source: recombinant, bought (reagents list: annexin-V …)
T2 sequence (looked up): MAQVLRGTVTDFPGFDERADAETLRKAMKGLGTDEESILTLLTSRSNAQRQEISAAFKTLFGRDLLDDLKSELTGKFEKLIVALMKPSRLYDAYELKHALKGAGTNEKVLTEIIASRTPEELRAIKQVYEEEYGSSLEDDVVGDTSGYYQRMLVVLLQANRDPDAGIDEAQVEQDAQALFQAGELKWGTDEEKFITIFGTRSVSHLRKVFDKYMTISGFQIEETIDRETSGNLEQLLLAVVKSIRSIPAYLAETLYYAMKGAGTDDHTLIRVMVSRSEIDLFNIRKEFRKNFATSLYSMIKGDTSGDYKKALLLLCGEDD

B1: recombinant annexin A5, P08758 1-320 (natural protein)
chain: MAQVLRGTVTDFPGFDERADAETLRKAMKGLGTDEESILTLLTSRSNAQRQEISAAFKTLFGRDLLDDLKSELTGKFEKLIVALMKPSRLYDAYELKHALKGAGTNEKVLTEIIASRTPEELRAIKQVYEEEYGSSLEDDVVGDTSGYYQRMLVVLLQANRDPDAGIDEAQVEQDAQALFQAGELKWGTDEEKFITIFGTRSVSHLRKVFDKYMTISGFQIEETIDRETSGNLEQLLLAVVKSIRSIPAYLAETLYYAMKGAGTDDHTLIRVMVSRSEIDLFNIRKEFRKNFATSLYSMIKGDTSGDYKKALLLLCGEDD
modifications: here or on the partner: Alexa Fluor 647 conjugated (the labelled copy held at a constant 20 µg/ml; position not stated); the titrated copy of the dimerisation assay is unlabelled; Alexa Fluor 647 conjugated (the labelled copy held at a constant 20 µg/ml; position not stated); the titrated copy of the dimerisation assay is unlabelled
B2: cinnamycin (peptide, UniProt P29827 60-78, looked up)
peptide: CRQSCSFGPFTFVCDGNTK
notes: cinnamycin, a 19-amino-acid lantibiotic (the mature peptide cut from its precursor); source: bought: Santa Cruz Biotechnology (sc-391464)

Assays:
[1] = target: T1, recombinant annexin A5, P08758; assay: MST; Nanotemper Monolith NT.115; constant annexin A5-Alexa Fluor 647 (20 µg/ml) mixed with unlabelled recombinant annexin A5 from 7×10^−6 µg/ml to 100 µg/ml, 1 h at room temperature, with 5 µM Ca2+ (CaCl2); dimerisation (dimer to monomers), used as positive control; conditions: remark: other sources report otherwise
recombinant annexin A5 = target: T2, recombinant annexin A5; assay: MST; Nanotemper Monolith NT.115; constant annexin A5-Alexa Fluor 647 (20 µg/ml) mixed with cinnamycin from 7×10^−8 mM to 1 mM, 1 h at room temperature; conditions: both partners purified

Binder	Kd [1] [µM]	Kd (recombinant annexin A5) [µM]
B1	1	
B2		614
